Source: paper PMC7210950 (2020)
Square brackets hold non-standard residues; d marks the D form. Ends that are not written are not given here. pY = N[C@@H](Cc1ccc(OP(=O)(O)O)cc1)C(=O)O

Tests used:
Assay in all cases: FP
[1] = target: Btk SH2 domain K374N (XLA mutation) (human, UniProt Q06187 271-383, K374N)
[2] = target: Btk SH2 domain R372G (XLA mutation) (human, UniProt Q06187 271-383, R372G)
[3] = target: Btk SH2 domain, wild-type (recombinant) (human, UniProt Q06187 271-383)
[4] = target: Btk SH2 domain K296E (XLA mutation) (human, UniProt Q06187 271-383, K296E)
Btk SH2 domain K296E (XLA mutation), sequence (Q06187 271-383 K296E): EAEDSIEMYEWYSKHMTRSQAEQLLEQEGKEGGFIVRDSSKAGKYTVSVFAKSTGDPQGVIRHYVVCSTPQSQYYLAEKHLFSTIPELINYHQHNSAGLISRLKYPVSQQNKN

[5] = target: Btk SH2 domain H364D (XLA mutation) (human, UniProt Q06187 271-383, H364D)
Btk SH2 domain H364D (XLA mutation), sequence (Q06187 271-383 H364D): as the sequence (Q06187 271-383 K296E) above, with E26K, H94D counted along it

[6] = target: Btk SH2 domain S371P (XLA mutation) (human, UniProt Q06187 271-383, S371P)
Btk SH2 domain S371P (XLA mutation), sequence (Q06187 271-383 S371P): as the sequence (Q06187 271-383 K296E) above, with E26K, S101P counted along it

Btk SH2 domain R372G (XLA mutation), sequence (Q06187 271-383 R372G): as the sequence (Q06187 271-383 K296E) above, with E26K, R102G counted along it
Btk SH2 domain, wild-type (recombinant), sequence (Q06187 271-383): as the sequence (Q06187 271-383 K296E) above, with E26K counted along it
Btk SH2 domain K374N (XLA mutation), sequence (Q06187 271-383 K374N): as the sequence (Q06187 271-383 K296E) above, with E26K, K104N counted along it

Kd [1]: 8.7 µM | Kd [2]: 5.8 µM | Kd [3]: 7.1 µM | Kd [4]: 21.8 µM | Kd [5]: 6.9 µM | Kd [6]: 5.7 µM
Binder: ADND[pY]IIPLPD (also: FITC label, end not given here) [FITC-labeled pY-peptide (ADNDpYIIPLPD)]
